The labels stand for the following.
B4: AR-N (aa 36-553), in vitro translated (receptor)
chain: NPGPRHPEAASAAPPGASLLLLQQQQQQQQQQQQQQQQQQQQQETSPRQQQQQQGEDGSPQAHRRGPTGYLVLDEEQQPSQPQSALECHPERGCVPEPGAAVAASKGLPQQLPAPPDEDDSAAPSTLSLLGPTFPGLSSCSADLKDILSEASTMQLLQQQQQEAVSEGSSSGRAREASGAPTSSKDNYLGGTSTISDNAKELCKAVSVSMGLGVEALEHLSPGEQLRGDCMYAPLLGVPPAVRPTPCAPLAECKGSLLDDSAGKSTEDTAEYSPFKGGYTKGLEGESLGCSGSAAAGSSGTLELPSTLSLYKSGALDEAAAYQSRDYYNFPLALAGPPPPPPPPHPHARIKLENPLDYGSAWAAAAAQCRYGDLASLHGAGAAGPGSGSPSAAASSSWHTLFTAEEGQLYGPCGGGGGGGGGGGGGGGGGGGGGGGGEAGAVAPYGYTRPPQGLAGQESDFTAPDVWYPGGMVSRVPYPSPTCVKSEMGPWMDSYSGPYGDMRLETARDHVLPIDYYF
modifications: [35S]-methionine-labeled
notes: also called AR N-terminal

Assay [1] deals with T1, androgen receptor (AR), full-length, human (human, UniProt P10275 1-920).
T1 sequence: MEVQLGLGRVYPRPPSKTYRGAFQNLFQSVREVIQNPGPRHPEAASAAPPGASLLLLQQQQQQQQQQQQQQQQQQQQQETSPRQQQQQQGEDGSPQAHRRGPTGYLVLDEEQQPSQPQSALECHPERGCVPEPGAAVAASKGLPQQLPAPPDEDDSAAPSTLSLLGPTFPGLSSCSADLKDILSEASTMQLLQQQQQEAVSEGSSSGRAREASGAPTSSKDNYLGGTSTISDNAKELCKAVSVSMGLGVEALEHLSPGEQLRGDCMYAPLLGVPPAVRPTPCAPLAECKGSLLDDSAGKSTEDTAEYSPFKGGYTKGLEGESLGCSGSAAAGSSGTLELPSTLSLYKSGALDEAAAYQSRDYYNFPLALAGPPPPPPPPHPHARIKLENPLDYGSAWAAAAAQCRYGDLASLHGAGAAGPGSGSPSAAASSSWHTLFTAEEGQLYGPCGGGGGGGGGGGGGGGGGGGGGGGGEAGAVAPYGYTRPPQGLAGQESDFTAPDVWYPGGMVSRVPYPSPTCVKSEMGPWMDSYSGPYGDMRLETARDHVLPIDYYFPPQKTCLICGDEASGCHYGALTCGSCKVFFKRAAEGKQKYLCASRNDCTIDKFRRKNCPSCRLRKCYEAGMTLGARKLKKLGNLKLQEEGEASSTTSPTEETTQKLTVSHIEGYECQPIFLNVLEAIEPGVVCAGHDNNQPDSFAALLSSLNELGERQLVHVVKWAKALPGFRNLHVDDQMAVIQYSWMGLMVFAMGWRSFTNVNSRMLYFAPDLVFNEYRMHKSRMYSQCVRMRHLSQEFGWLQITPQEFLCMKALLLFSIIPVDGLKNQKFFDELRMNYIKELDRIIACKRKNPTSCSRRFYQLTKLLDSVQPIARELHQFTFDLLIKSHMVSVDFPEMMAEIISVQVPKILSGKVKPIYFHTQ
In words: cell-based or functional assay.

For assay [2], the target named is T2, GAL4 DBD fused with C-terminal fragment (aa 595-918) of wild-type AR (human, UniProt P04386 1-147 (Saccharomyces cerevisiae entry)).
T2 construct: range 1-147; also called pAS2-AR; pAS2-wtAR
In words: yeast two-hybrid.

The target in assay [3] is T3, GAL4 DBD fused with C-terminal fragment (aa 595-918) of mARt877s (human, UniProt P04386 1-147 (Saccharomyces cerevisiae entry)).
T3 construct: range 1-147; Yeast two-hybrid bait; the text also writes t877a in places; also called pAS2-mtARt877s; mtARt877s
In words: yeast two-hybrid screen of prostate cDNA library.

In assay [4] the target is T4, GAL4 empty vector (GAL4 DBD alone) (UniProt P04386 1-147).
T4 construct: range 1-147; Control
In words: mammalian two-hybrid, DU145, CAT.

Assay [5] concerns the target T5, GST-ARA267N2 (ARA267 aa 1-984) (human, UniProt Q96L73 280-1253).
T5 sequence: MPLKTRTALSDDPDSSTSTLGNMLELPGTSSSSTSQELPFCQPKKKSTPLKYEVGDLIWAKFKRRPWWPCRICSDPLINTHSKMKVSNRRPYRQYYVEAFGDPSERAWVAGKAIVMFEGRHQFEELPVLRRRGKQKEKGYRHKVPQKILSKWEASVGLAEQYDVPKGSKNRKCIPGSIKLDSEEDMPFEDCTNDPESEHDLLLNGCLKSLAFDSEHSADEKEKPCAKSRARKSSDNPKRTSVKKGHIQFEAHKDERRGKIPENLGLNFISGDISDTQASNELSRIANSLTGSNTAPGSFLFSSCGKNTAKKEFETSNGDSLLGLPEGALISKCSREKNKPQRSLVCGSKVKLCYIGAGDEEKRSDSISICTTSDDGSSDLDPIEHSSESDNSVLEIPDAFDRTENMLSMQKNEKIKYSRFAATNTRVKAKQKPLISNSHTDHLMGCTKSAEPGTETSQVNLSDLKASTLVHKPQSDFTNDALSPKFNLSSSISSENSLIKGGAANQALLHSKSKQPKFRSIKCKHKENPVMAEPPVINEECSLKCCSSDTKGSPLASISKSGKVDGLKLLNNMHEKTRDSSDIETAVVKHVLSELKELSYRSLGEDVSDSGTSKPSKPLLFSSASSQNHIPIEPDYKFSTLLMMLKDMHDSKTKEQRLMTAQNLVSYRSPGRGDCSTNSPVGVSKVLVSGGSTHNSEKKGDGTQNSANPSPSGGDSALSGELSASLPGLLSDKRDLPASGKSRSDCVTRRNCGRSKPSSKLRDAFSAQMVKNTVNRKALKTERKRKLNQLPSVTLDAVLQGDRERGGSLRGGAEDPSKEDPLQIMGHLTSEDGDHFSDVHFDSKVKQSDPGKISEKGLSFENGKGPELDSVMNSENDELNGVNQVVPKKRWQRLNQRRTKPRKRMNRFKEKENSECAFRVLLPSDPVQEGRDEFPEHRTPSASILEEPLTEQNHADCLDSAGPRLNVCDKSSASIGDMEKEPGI
In words: GST pull-down.
Method: (§1) After several washes with NETN buffer [20 mM Tris/pH 8.0, 100 mM NaCl, 6 mM MgCL₂, 1.0 mM EDTA, 1.0 mM DTT, 0.5% (vol/vol) Nonidet P-40, 1 mM PMSF, and 8% glycerol], the bound proteins were separated on SDS-PAGE gel and visualized by PhosphorImager (Molecular Dynamics).
(§2) To confirm the interaction between ARA267 and AR that was shown in the yeast two-hybrid system, GST pull-down assay was applied to confirm and further map the interaction domains between ARA267 and AR.

Assay [6] addresses T6, GST-ARA267C (ARA267 aa 1716-2427) (human, UniProt Q96L73 1985-2696).
T6 sequence: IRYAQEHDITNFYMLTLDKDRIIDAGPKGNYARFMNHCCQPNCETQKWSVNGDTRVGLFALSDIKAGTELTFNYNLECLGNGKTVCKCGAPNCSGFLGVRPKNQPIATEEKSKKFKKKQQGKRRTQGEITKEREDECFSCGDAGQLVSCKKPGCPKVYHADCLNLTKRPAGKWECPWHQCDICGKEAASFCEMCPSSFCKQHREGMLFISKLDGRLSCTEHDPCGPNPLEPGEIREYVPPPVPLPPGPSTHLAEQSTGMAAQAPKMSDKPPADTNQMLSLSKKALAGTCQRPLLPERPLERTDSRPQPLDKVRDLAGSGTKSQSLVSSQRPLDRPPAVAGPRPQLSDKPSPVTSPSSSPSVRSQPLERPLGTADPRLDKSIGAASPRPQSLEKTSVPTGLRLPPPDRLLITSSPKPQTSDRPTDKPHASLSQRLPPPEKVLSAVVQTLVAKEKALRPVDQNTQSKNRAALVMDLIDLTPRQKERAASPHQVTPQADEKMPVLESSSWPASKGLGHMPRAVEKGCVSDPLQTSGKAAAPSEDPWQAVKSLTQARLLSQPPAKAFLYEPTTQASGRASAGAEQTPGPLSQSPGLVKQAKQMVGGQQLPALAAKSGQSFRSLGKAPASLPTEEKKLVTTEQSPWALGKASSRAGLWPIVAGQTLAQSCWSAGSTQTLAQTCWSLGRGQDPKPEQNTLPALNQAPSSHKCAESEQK
In words: GST pull-down.
Method: as §1, §2

Assay [7] has as its target B4. In words: GST pull-down.
Method: as §1, §2

B1: ARA70N (aa 1-401) with wild-type FXXLF, expressed from pSG5 (other)
chain: MNTFQDQSGSSSNREPLLRCSDARRDLELAIGGVLRAEQQIKDNLREVKAQIHSCISRHLECLRSREVWLYEQVDLIYQLKEETLQQQAQQLYSLLGQFNCLTHQLECTQNKDLANQVSVCLERLGSLTLKPEDSTVLLFEADTITLRQTITTFGSLKTIQIPEHLMAHASSANIGPFLEKRGCISMPEQKSASGIVAVPFSEWLLGSKPASGYQAPYIPSTDPQDWLTQKQTLENSQTSSRACNFFNNVGGNLKGLENWLLKSEKSSYQKCNSHSTTSSFSIEMEKVGDQELPDQDEMDLSDWLVTPQESHKLRKPENGSRETSEKFKLLFQSYNVNDWLVKTDSCTNCQGNQPKGVEIENLGNLKCLNDHLEAKKPLSTPSMVTEDWLVQNHQDPCKVE
Turning to B1, the “AR transactivation (MMTV-LUC, COS-1, 10 nM T)” value in assay [1] turned out to be 310 fold.

B2: GAL4 AD fused C-terminal region of ARA54 (C'-ARA54, amino acids 361-474) (other)
chain: ANFNQSGNIADSSLSFTFTNSSNGPNLITTQTNSQALSQPIASSNVHDNFMNNEITASKIDDGNNSKPLSPGWTDQTAYNAFGITTGMFNTTTMDDVYNYLFDDEDTPPNPKKERNEYLQADEANKRLLDQRYGKRVIQKALEEMESKEWLEKNSKSCPCCGTPIEKLDGCNKMTCTGCMQYFCWICMGSLSRANPYKHFNDPGSPCFNRLFYAVDVDDDIWEDEVED
notes: range 768-881; Clone from the prostate cDNA library; also called pACT2-C'-ARA54
For B2, the binding result in assay [2] and in assay [3] was “binds” throughout.

B3: VP16 AD fused full-length ARA55 (other)
chain: MPRSGAPKERPAEPLTPPPSYGHQPTGQSGESSGASGDKDHLYSTVCKPRSPKPAAPAAPPFSSSSGVLGTGLCELDRLLQELNATQFNITDEIMSQFPSSKVASGEQKEDQSEDKKRPSLPSSPSPGLPKASATSATLELDRLMASLPDFRVQNHLPASGPTQPPVVSSTNEGSPSPPEPTAKGSLDTMLGLLQSDLSRRGVPTQAKGLCGSCNKPIAGQVVTALGRAWHPEHFVCGGCSTALGGSSFFEKDGAPFCPECYFERFSPRCGFCNQPIRHKMVTALGTHWHPEHFCCVSCGEPFGDEGFHEREGRPYCRRDFLQLFAPRCQGCQGPILDNYISALSLLWHPDCFVCRECFAPFSGGSFFEHEGRPLCENHFHARRGSLCPTCGLPVTGRCVSALGRRFHPDHFACTFCLRPLTKGSFQERAGKPYCQPCFLKLFG
notes: also called VP16-ARA55
As for B3, the binding result in assay [4] is given as “no binding”. Turning to B4, the binding result in assay [5] and in assay [6] was “no binding” throughout.

B5: GST-ARA267N1 (ARA267 aa 1-382) (other, not shown: a dimerising Fc or GST)
chain: MPLKTRTALSDDPDSSTSTLGNMLELPGTSSSSTSQELPFCQPKKKSTPLKYEVGDLIWAKFKRRPWWPCRICSDPLINTHSKMKVSNRRPYRQYYVEAFGDPSERAWVAGKAIVMFEGRHQFEELPVLRRRGKQKEKGYRHKVPQKILSKWEASVGLAEQYDVPKGSKNRKCIPGSIKLDSEEDMPFEDCTNDPESEHDLLLNGCLKSLAFDSEHSADEKEKPCAKSRARKSSDNPKRTSVKKGHIQFEAHKDERRGKIPENLGLNFISGDISDTQASNELSRIANSLTGSNTAPGSFLFSSCGKNTAKKEFETSNGDSLLGLPEGALISKCSREKNKPQRSLVCGSKVKLCYIGAGDEEKRSDSISICTTSDDGSSDLDP
In the case of B5, in assay [7], the binding result is on record as “no binding”.

The values are drawn from patent US20060270591A1 (published 2006).
